Measurements: article PMC3781937 (Molecular microbiology, 2013)

B1: YmcA (GST tag removed) (natural protein, Bacillus subtilis, UniProt O31779 1-143, looked up)
chain: MTLYSKKDIVQQARNLAKMISETEEVDFFKRAEAQINENDKVSTIVNQIKALQKQAVNLKHYEKHEALKQVEAKIDALQEELEEIPVIQEFRDSQMEVNDLLQLVAHTISNQVTNEIITSTGGDLLKGETGSKVKHSNNSCSL
B2: YmcA-T25 (natural protein, Bacillus subtilis, UniProt O31779 1-143, looked up)
chain: B1 chain
B3: YlbF (GST tag removed, in the co-purified complex) (natural protein, Bacillus subtilis, UniProt O34412 1-149, looked up)
chain: MYATMESVRLQSEAQQLAEMILQSETAENYRNCYKRLQEDEEAGRIIRSFIKIKEQYEDVQRFGKYHPDYREISRKMREIKRELDLNDKVADFKRAENELQSILDEVSVEIGTAVSEHVKVPTGNPYFDGLSSCGGGCGSGGSCGCKVS

Experiments:
[1] = target: B3; assay: SEC
[2] = target: T1, YaaT (His6-SUMO tag removed, in the co-purified complex) (Bacillus subtilis, UniProt P37541 1-275); assay: SEC
T1 sequence (looked up): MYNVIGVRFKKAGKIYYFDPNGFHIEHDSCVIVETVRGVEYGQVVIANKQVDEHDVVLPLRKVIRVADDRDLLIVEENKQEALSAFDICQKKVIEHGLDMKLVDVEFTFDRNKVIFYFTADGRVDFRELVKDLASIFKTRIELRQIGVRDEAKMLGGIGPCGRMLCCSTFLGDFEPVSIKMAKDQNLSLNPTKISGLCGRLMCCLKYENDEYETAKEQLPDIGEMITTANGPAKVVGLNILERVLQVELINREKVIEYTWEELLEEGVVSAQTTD

[3] = target: the molecule itself; assay: two-hybrid
[4] = target: T2, T18-Spo0F (Bacillus subtilis, UniProt P06628 1-124); assay: two-hybrid
T2 sequence (looked up): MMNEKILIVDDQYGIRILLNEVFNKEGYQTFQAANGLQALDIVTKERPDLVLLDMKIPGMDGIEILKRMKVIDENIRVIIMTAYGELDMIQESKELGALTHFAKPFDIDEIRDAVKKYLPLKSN

## B1
[1]
  stoichiometry N: 2.2 fold
[2]
  stoichiometry N: 2.2 fold

## B2
[3]
  β-galactosidase activity, ratio above the T18–T25 negative control: 48.3 ratio above the T18–T25 negative control
[4]
  β-galactosidase activity, ratio above the T18–T25 negative control: 11.3 ratio above the T18–T25 negative control

## B3
[2]
  binding result: binds
